Laboratory results: patent publication US11932673

Experiments:
trypsin [1] = experiment: monoclonal phage TRF
trypsin [2] = experiment: Fab TRF, 10 ug/mL Fab
trypsin [3] = experiment: Fab TRF, 0.6 ug/mL Fab
trypsin [4] = experiment: Fab TRF, 2.4 ug/mL Fab

| Binder | Tryspin binding signal (FU) (trypsin [1]) | TRF signal (trypsin [2]) | TRF signal (trypsin [3]) | TRF signal (trypsin [4]) |
| --- | --- | --- | --- | --- |
| KB_A01 (scFv, V domains shown) VH: EVQLVESGGGLVRPGGSLRLSCAASGFTFSSYAMSWVRQAPGKGLEWVSAISGSGGSTYYADSVKGRFTISRDNTKNSLYLQMTSLRADDTAFYYCVKDFGPGYGTGWFDYWGPGTLVTVSS VL: YLNWYQQKPGKAPKLLIYAAEVCPRILMRCKQDSDCLAGCVCGPNGFCGGTSGVPSRFSGSRSGTEFTLTISSLQPEDFATYYCQKVDDYPLTFGGGTKVEIKR | 20200 FU | 55600 | 2390 | 16600 |
| KB_A03 (scFv, V domains shown) VH: EVQLVESGGGLVRPGGSLRLSCAASGFTFSSYAMSWVRQAPGKGLEWVSAISGSGGSTYYADSVKGRFTISRDNTKNSLYLQMTSLRADDTAFYYCVKDFGPGYGTGWFDYWGPGTLVTVSS VL: AVNWYQQLPGKAPKLLINAADRCPRILMRCKQDSDCLAGCVCGPNGFCGTNSGVPDRFSGSSSGNTASLTITGAQAEDEADYYCNSRDSSGNNWVFGGGTKVTVLG | 28700 FU | – | – | – |
| KB_B12 (scFv, V domains shown) VH: EVQLVESGGGLVRPGGSLRLSCAASGFTFSSYAMSWVRQAPGKGLEWVSAISGSGGSTYYADSVKGRFTISRDNTKNSLYLQMTSLRADDTAFYYCVKDFGPGYGTGWFDYWGPGTLVTVSS VL: TQPPSVSEAPRQRVTITCGERPCPRILMRCKQDSDCLAGCVCGPNGFCGANNWYQQLPGSSPTTVIYEDNQRPSGVPDRFSGSIDSSSNSASLTISGLKTEDEADYYCQSYDSSNQVFGGGTKVTVLG | 17400 FU | – | – | – |
| KB_A02 (scFv, V domains shown) VH: EVQLVESGGGLVRPGGSLRLSCAASGFTFSSYAMSWVRQAPGKGLEWVSAISGSGGSTYYADSVKGRFTISRDNTKNSLYLQMTSLRADDTAFYYCVKDFGPGYGTGWFDYWGPGTLVTVSS VL: AVNWYQQLPGKAPKLLIYAAAKCPRILMRCKQDSDCLAGCVCGPNGFCGGASGVSDRFSGSIDSSSNSASLTISGLKPEDEGDYYCQSYDSSNRWVFGGGTKVTVLG | 183000 FU | 255000 | 93800 | 221000 |
| KB_B10 (scFv, V domains shown) VH: EVQLVESGGGLVRPGGSLRLSCAASGFTFSSYAMSWVRQAPGKGLEWVSAISGSGGSTYYADSVKGRFTISRDNTKNSLYLQMTSLRADDTAFYYCVKDFGPGYGTGWFDYWGPGTLVTVSS VL: QSVLTQLPSVSEAPRQRVTITCGRAMCPRILMRCKQDSDCLAGCVCGPNGFCGTGNWYQQHPGKAPKLIIFDVSKRPSGVPDRFSASKSGNTASLTISGLQAEDEADYYCNSYTSSNTWVFGGGTQLTVLG | 9270 FU | – | – | – |
| KB_A05 (scFv, V domains shown) VH: EVQLVESGGGLVRPGGSLRLSCAASGFTFSSYAMSWVRQAPGKGLEWVSAISGSGGSTYYADSVKGRFTISRDNTKNSLYLQMTSLRADDTAFYYCVKDFGPGYGTGWFDYWGPGTLVTVSS VL: AVNWYQQLPGKAPKLLIYAADKCPRILMRCKQDSDCLAGCVCGPNGFCGGGSGIPERFSGSKSGTSASLAISGLRSEDEADYYCATWDDNLNGVVFGGGTKLTVLG | 121000 FU | 218000 | 46700 | 65400 |
| KB_B11 (scFv, V domains shown) VH: EVQLVESGGGLVRPGGSLRLSCAASGFTFSSYAMSWVRQAPGKGLEWVSAISGSGGSTYYADSVKGRFTISRDNTKNSLYLQMTSLRADDTAFYYCVKDFGPGYGTGWFDYWGPGTLVTVSS VL: TQPPSVSEAPRQRVTITCGSRPCPRILMRCKQDSDCLAGCVCGPNGFCGSHNWYQQLPGSSPTTVIYEDNQRPSGVPDRFSGSIDRSSNSASLTISGLKTEDEADYYCQSYDSSNHRVVFGGGTKLTVLG | 10300 FU | – | – | – |
